Consider one molecule from publication PMC3814720, “Pro-inflammatory cytokines can act as intracellular modulators of commensal bacterial virulence”.

For the data set, the target named is TNF-α (human, UniProt P01375 77-233). The experiment in a line: EMSA; 5-20 uM TNF-α. The conditions noted are these: chain copies: 3; label: 32P 5'-end; blunt. (Mobility shift assays separate free from complexed probe on a gel.)
Sequence of TNF-α (P01375 77-233): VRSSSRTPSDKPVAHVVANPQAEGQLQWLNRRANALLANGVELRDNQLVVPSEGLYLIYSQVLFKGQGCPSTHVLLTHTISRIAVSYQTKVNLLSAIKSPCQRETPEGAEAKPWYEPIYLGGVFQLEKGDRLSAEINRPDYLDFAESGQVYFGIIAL

B1: app internal region (dsDNA)
DNA 1: GTTTTTTACCAACAGGAGGCTCATTTGGCGACAGTGGCTCACCAATGTTTATCTATGATGCCCAAAAGCAAAAGTG
DNA 2: CACTTTTGCTTTTGGGCATCATAGATAAACATTGGTGAGCCACTGTCGCCAAATGAGCCTCCTGTTGGTAAAAAAC
Take B1: the binding result is “no binding”.
